We go through eight molecules from patent US20230322953A1 (HARBOUR BIOMED SHANGHAI, published 2023).

Assay [1] addresses T1, human PD-L1-His protein (ACRO Biosystems, #PD1-H5229) (human, UniProt Q9NZQ7 19-238).
T1 construct: extracellular domain; bought; also called hPDL1-His; human PD-L1 extracellular domain recombinant protein
Briefly: ELISA, coated hPD-L1-His.

Assay [2] concerns the target T2, biotinylated human CTLA4-Fc protein (ACRO Biosystems, #CT4-H82F3) (human, UniProt P16410 36-161, biotinylated).
T2 construct: bought; also called human CTLA4 protein
Briefly: competition ELISA: biotinylated hCTLA4-Fc to coated B7-1-Fc. (In an ELISA, binding on a coated surface is turned into a signal by an enzyme label.)

In assay [3] the target is T3, human CTLA4 on cells (CHO-K1/hCTLA4; HEK293/hCTLA4; 293F-hCTLA4) (human, UniProt P16410 36-223).
T3 construct: whole, on cells
Briefly: competition FACS: biotinylated B7-1-Fc to CHO-K1/hCTLA4 cells (Test 1).

In assay [4] the target is T3, human CTLA4 on cells (CHO-K1/hCTLA4; …). Briefly: FACS, CHO-K1/hCTLA4 cells (Test 1).
The target in assay [5] is T4, human CTLA4-His protein (ACRO Biosystems, #CT4-H5229) (human, UniProt P16410 36-161).
T4 construct: extracellular domain; bought; also called hCTLA4-His; human CTLA4 extracellular domain recombinant protein
Briefly: ELISA, coated hCTLA4-His.

Assay [6] addresses T4, human CTLA4-His protein (ACRO …). The experiment in a line: ELISA, coated hCTLA4-His. This is another data set of the same source.
Assay [7] deals with T5, human PD-L1 on cells (CHO-K1/hPDL1; MDA-MB-231) (human, UniProt Q9NZQ7 19-290).
T5 construct: whole, on cells
Briefly: FACS, CHO-K1/hPDL1 cells (Experiment 1).

Assay [8] has as its target T5, human PD-L1 on cells (CHO-K1/hPDL1; …). The experiment in a line: competition FACS: biotinylated PD-1 to CHO-K1/hPDL1 cells (Experiment 1).
Assay [9] concerns the target T6, human PD-L1 (programmed death ligand 1) (human, UniProt Q9NZQ7 19-290).
T6 construct: whole, on cells; also called hPDL1; CD274
Briefly: flow cytometry (FACS) on CHO-K1/hPDL1 cells, Experiment 3. In general terms: A flow cytometer gives signals particle by particle.

In assay [10] the target is T6, human PD-L1 (programmed death ligand 1). Briefly: flow cytometry (FACS) on CHO-K1/hPDL1 cells, Experiment 2.
For assay [11] the target is unchanged. The experiment in a line: flow cytometry (FACS) on CHO-K1/hPDL1 cells, Experiment 1.
Assay [12] concerns the target T2, biotinylated human CTLA4-Fc protein …. Briefly: competition ELISA: biotinylated hCTLA4-Fc to coated B7-1-Fc. The source holds these as a separate data set.
In assay [13] the target is T7, cynomolgus monkey 4-1BB (cynomolgus monkey).
T7 construct: whole, on cells; also called cyno 4-1BB
Briefly: flow cytometry (FACS) on CHO-K1/cyno 4-1BB cells, Experiment 1.

The target in assay [14] is T7, cynomolgus monkey 4-1BB. The experiment in a line: flow cytometry (FACS) on CHO-K1/cyno 4-1BB cells, Experiment 2.
For assay [15], the target named is T3, human CTLA4 on cells (CHO-K1/hCTLA4; …). Briefly: competition FACS: biotinylated B7-1-Fc to CHO-K1/hCTLA4 cells.
Assay [16] deals with T8, human CTLA4 on CHO-K1/hCTLA4 cells (human, UniProt P16410 36-223).
T8 construct: whole, on cells; CHO-K1 cell line highly expressing human CTLA4; also called human CTLA4 cell
Briefly: flow cytometry competition: biotinylated human B7-1-Fc on CHO-K1/hCTLA4 cells, Experiment 2.

In assay [17] the target is T8, human CTLA4 on CHO-K1/hCTLA4 cells. The experiment in a line: flow cytometry on CHO-K1/hCTLA4 cells, Experiment 3.
The target of assay [18] is T9, human 4-1BB (human, UniProt Q07011 24-255).
T9 construct: whole, on cells; also called CD137; TNFRSF9
Briefly: flow cytometry, CHO-K1/hu 4-1BB cells.

B1: PR000303 (bispecific antibody, human IgG1, kappa)
light: DIQMTQSPSTLSASVGDRVTVTCRASQSIYIWLAWYQQKPGKAPNLLIYKASSLETGVPSRFSGSGSGTEFTLTISSLQPDDFATYYCQQYYGSSRTFGQGTKVEIKRTVAAPSVFIFPPSDEQLKSGTASVVCLLNNFYPREAKVQWKVDNALQSGNSQESVTEQDSKDSTYSLSSTLTLSKADYEKHKVYACEVTHQGLSSPVTKSFNRGEC
chain: not shown
What is called EC50 is the concentration at which the effect is half-maximal. A word on the IC50: it is the midpoint of a concentration-inhibition curve. Take B1: the EC50 in assay [1] amounted to 0.241 nM; in assay [4] it was 4.36 nM; in assay [5], 1.57 nM; in assay [7], 0.848 nM. The “Maximum OD450” value in [1] turned out to be 3.52 OD450; in [5], 2.72 OD450. Also, the IC50 in assay [2] is 4.12 nM; in [3], 9.71 nM; in assay [8], 0.695 nM. Further, the “Maximum inhibition rate (%)” value in assay [2] is 97.3%; in [3], 83.3%; in assay [8] it was 95.9%. In addition, the entries for the “Maximum MFI” value in [4] and in assay [7] were 2040 MFI and 18000 MFI, respectively. The “fold poorer EC50 than PR000184” value in [6] was found to be 2.6 fold.

B2: Anti-PD-L1 91G3H5H3 (D54E), hIgG1 (N297A) (antibody)
light: B1 light
heavy: not shown
notes: hIgG1 (N297A); also called PR000265
With B2, the EC50 in assay [9] was 1.56 nM; in assay [10] it was 0.356 nM; in assay [11] it was 0.781 nM. Also, the “Maximum MFI” value in assay [9] amounted to 47000 MFI; in [11], 2000 MFI.

B3: PR000302 (bispecific antibody, human IgG1, kappa)
chain: DIQMTQSPSTLSASVGDRVTVTCRASQSIYIWLAWYQQKPGKAPNLLIYKASSLETGVPSRFSGSGSGTEFTLTISSLQPDDFATYYCQQYYGSSRTFGQGTKVEIKRTVAAPSVFIFPPSDEQLKSGTASVVCLLNNFYPREAKVQWKVDNALQSGNSQESVTEQDSKDSTYSLSSTLTLSKADYEKHKVYACEVTHQGLSSPVTKSFNRGECEPKSSDKTHTPPPPPEVQLVESGGGLIQPGGSLRLSCAVSGFTVSKNYMSWVRQAPGKGLEWVSVVYSGGSKTYADSVKGRFTISRDNSKNTLYLQMNSLRAEDTAVYYCARAVPHSPSSFDIWGQGTMVTVSS
heavy: not shown
As to B3, the EC50 was determined as 0.152 nM in assay [1], 26.1 nM in assay [4], 10.6 nM in [5] and 0.737 nM in [7]. Besides, the “Maximum OD450” value amounted to 3.54 OD450 in assay [1] and 3.55 OD450 in assay [5]. In addition, the IC50 in assay [2] turned out to be 11.6 nM; in assay [3] it was 71.2 nM; in assay [8], 0.64 nM. For the same molecule, the “Maximum inhibition rate (%)” value in assay [2] was 98.9%; in assay [3] it was 49%; in assay [8] it was 96.7%. Moreover, the “Maximum MFI” value in assay [4] was found to be 1570 MFI; in assay [7], 18600 MFI. Also, the “fold weaker IC50 than PR000184” value in assay [12] worked out at 4 fold.

B4: Anti-4-1BB monoclonal antibody utomilumab analog, hIgG2 (antibody, V domains shown)
VH: EVQLVQSGAEVKKPGESLRISCKGSGYSFSTYWISWVRQMPGKGLEWMGKIYPGDSYTNYSPSFQGQVTISADKSISTAYLQWSSLKASDTAMYYCARGYGIFDYWGQGTLVTVSS
VL: SYELTQPPSVSVSPGQTASITCSGDNIGDQYAHWYQQKPGQSPVLVIYQDKNRPSGIPERFSGSNSGNTATLTISGTQAMDEADYYCATYTGFGSLAVFGGGTKLTVLG
notes: tied to PR000483 by the list of control molecules; also called PR000483
With B4, in assay [13], the midpoint of the response, the EC50, lay at 0.347 nM and the “Maximum MFI” value worked out at 5390 MFI. Also, in assay [14], the EC50 was 0.337 nM.

B5: PR004270, PD-L1×4-1BB bispecific antibody molecule of Fab-HCAb symmetric structure (bispecific antibody, human IgG1)
chain 1: EVQLVESGGGLVQPGGSLRLSCAASGFTFSSYWMSWVRQAPGKGLEWVANIKQEGSEKYYVDSVKGRFTISRDNAKNSLYLQMNSLRAEDTAVYYCARDRAVAGAFDIWGQGTMVTVSSASTKGPSVFPLAPSSKSTSGGTAALGCLVKDYFPEPVTVSWNSGALTSGVHTFPAVLQSSGLYSLSSVVTVPSSSLGTQTYICNVNHKPSNTKVDKKVEPKSC
chain 2: not shown
notes: Structure 1 Fab(CL)-VH-Fc; Fab of PR000265, VH of PR001760; linker H1_15, human IgG1 hinge (C220S); human IgG1 (L234A, L235A)
For the molecule B5, the EC50 in assay [10] came to 0.963 nM; in assay [14] it was 1.55 nM.

B6: PR002672 (bispecific antibody)
chain 1: not shown
chain 2: not shown
chain 3: EVQLVESGGGLIQPGGSLRLSCAVSGFTVSKNYMSWVRQAPGKGLEWVSVVYSGGSKTYADSVKGRFTISRDNSKNTLYLQMNSLRAEDTAVYYCARAVPHSPSSFDIWGQGTMVTVSSGGGGSEVQLVESGGGLIQPGGSLRLSCAVSGFTVSKNYMSWVRQAPGKGLEWVSVVYSGGSKTYADSVKGRFTISRDNSKNTLYLQMNSLRAEDTAVYYCARAVPHSPSSFDIWGQGTMVTVSSEPKSSDKTHTCPPCPAPELLGGPDVFLFPPKPKDTLMISRTPEVTCVVVDVSHEDPEVKFNWYVDGVEVHNAKTKPREEQYNSTYRVVSVLTVLHQDWLNGKEYKCKVSNKALPAPEEKTISKAKGQPREPQVCTLPPSREEMTKNQVSLSCAVKGFYPSDIAVEWESNGQPENNYKTTPPVLDSDGSFFLVSKLTVDKSRWQQGNVFSCSVMHEALHNHYTQKSLSLSPGK
notes: HER2×CTLA4, structure 18 Fab(cross Fd/LC)-Fc-VH-VH
Turning to B6, in assay [15], the “fold poorer IC50 than the parent monoclonal antibody” value is around 4 fold.

B7: HER2xCTLA4 bispecific antibody molecule PR002672 (bispecific antibody, human IgG1)
chain 1: not shown
chain 2: not shown
chain 3: B6 chain 3
notes: Structure 18 Fab(cross Fd/LC)-Fc-VH-VH (trivalent asymmetric); PR000210 Fab, two PR000184 VH in tandem, linker GS_5
In assay [16], B7 came in with an IC50 of 0.983 nM. Besides, the EC50 in assay [17] is 2.79 nM.

B8: PR001760, anti-4-1BB heavy-chain antibody 1016P0011G10, hIgG1 (antibody, V domains shown)
VH: EVQLVESGGGVVQPGGSLRLSCAASGFTFSNYAMTWVRQAPEKGLEWVSSISGSGVSTYYADSVKGRFTISRDNSKNTLYLQMTRLTAEDTAVYFCAKEGSSETDDHYYNVDVWGQGTTVTVSS
notes: Heavy-chain-only antibody (HCAb), no light chain
Turning to B8, in assay [18], the EC50 was 3.76 nM and the “Maximum MFI” value came out at 83600.
